Measurements taken from publication PMC8024055 (Nature, 2020).
Numbering of substitutions follows the chain as printed. Names may count otherwise.

B1: KEAP1^48-180 S172A (recombinant BTB domain, called wild type) (domain or fragment)
chain: GNRTFSYTLEDHTKQAFGIMNELRLSQQLCDVTLQVKYQDAPAAQFMAHKVVLASSSPVFKAMFTNGLREQGMEVVSIEGIHPKVMERLIEFAYTASISMGEKCVLHVMNGAVMYQIDSVVRACADFLVQQLD
B2: KEAP1^48-180 S172A/F64A (recombinant BTB domain) (domain or fragment)
chain: B1 chain with F17A
B3: KEAP1^48-180 S172A/V98A (recombinant BTB domain) (domain or fragment)
chain: B1 chain with V51A
B4: KEAP1^48-180 S172A/F64A/R116C labeled with Alexa Fluor 555 or Alexa Fluor 647 (domain or fragment)
chain: B1 chain with F17A, R69C

Experiments:
SEC = target: the molecule itself; assay: SEC
[1] = target: T1, His-MBP-FBXL17^310-701/Skp1 complex ( | human, UniProt Q9UF56;P63208); assay: pull-down
T1 sequence (Q9UF56 310-701, chain 1 of 2): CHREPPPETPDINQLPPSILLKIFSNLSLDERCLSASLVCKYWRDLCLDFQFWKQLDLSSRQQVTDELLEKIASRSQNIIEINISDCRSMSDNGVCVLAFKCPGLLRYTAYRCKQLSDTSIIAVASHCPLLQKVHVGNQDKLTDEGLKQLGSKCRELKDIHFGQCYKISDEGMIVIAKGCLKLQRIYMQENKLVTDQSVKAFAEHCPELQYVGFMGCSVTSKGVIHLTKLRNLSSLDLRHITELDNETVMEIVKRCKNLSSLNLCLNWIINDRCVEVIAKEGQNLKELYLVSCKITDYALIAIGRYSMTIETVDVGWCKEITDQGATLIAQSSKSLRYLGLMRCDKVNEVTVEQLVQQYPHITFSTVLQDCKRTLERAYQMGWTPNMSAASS
T1 sequence (P63208 whole entry, chain 2 of 2): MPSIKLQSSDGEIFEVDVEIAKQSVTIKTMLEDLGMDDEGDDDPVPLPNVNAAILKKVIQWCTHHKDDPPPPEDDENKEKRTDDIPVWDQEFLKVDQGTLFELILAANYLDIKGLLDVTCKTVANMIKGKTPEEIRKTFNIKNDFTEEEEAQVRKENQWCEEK

[2] = target: FBXL17^310-701 (tags removed, in the structures) (UniProt Q9UF56 310-701); assay: crystal structure
Chain of FBXL17^310-701 (tags removed, in the structures) (Q9UF56 310-701): as the sequence (Q9UF56 310-701, chain 1 of 2) above

[3] = target: T1, His-MBP-FBXL17^310-701/Skp1 complex; assay: FRET or BRET
FRET or BRET = target: the molecule itself; assay: FRET or BRET

Binder	stoichiometry N (SEC)	binding result [1]	binding result [2]	binding result [3]	binding result (FRET or BRET)
B1	2	–	–	–	–
B2	2	binds	binds	–	–
B3	2	–	–	–	–
B4	–	–	–	binds	binds
